Assays:
trypsin = biological target: T1, trypsin (Bos taurus, UniProt P00760); assay: Trypsin inhibition assay after reduction of the inhibitors; format: biochemical
T1 construct: purchased Sigma Chemical Co. (St. Louis, Mo.) T8640
T1 sequence (P00760 24-246): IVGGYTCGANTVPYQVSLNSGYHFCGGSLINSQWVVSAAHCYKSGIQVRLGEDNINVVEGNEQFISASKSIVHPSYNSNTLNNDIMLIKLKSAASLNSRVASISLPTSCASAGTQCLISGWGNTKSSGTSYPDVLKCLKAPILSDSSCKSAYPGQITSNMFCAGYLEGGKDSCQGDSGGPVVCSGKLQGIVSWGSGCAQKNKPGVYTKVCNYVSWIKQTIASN
Description: Unless indicated, the reduction of the trypsin inhibitors (0.4 mg/ml) was carried out in 0.1 ml of 20 mM sodium phosphate buffer, pH 7.9 containing 10 mM EDTA at 30° C. for 2 hours. The concentrations of thioredoxin, NTR, and NADPH were 0.024 mg/ml, 0.02 mg/ml, and 0.25 mM, respectively. […] Following reduction, aliquots of the inhibitor mixture were withdrawn either for determination of trypsin inhibitory activity or proteolytic susceptibility. In the subtilisin tests, the inhibitor mixture (50 μl) was directly mixed with subtilisin and incubated at room temperature for 1 hour. With the wheat protease preparation, the pH of the inhibitor mixture (50 μL) was first adjusted to 4.7 by mixing with 35 μl of 200 mM sodium acetate, pH 4.6; 10 μl of the wheat protease preparation was then added and incubation was continued for 2 hours at 37° C. To stop digestion with subtilisin, 2 μl of 100 mM phenylmethylsulfonyl fluoride (PMSF) and 10 μl of 10% SDS were added to the digestion mixture. With the plant protease preparation, digestion was stopped by adding an equal volume of SDS sample buffer [0.125 M Tris-HCl, pH 6.8, 4% (w/v) SDS, 20% (v/v) glycerol, 10% (v/v) β-mercaptoethanol, and 0.02% (w/v) bromophenol blue]. Proteolytic products were analyzed by electrophoresis with 12% or 16% SDS polyacrylamide slab gels (Laemmli, 1970). The dried slab gels were scanned with a laser densitometer (Pharmacia-LKB UltraScan XL) and the peak area of the KTI or BBTI protein band was obtained by integration with a Pharmacia GelScan XL software program.
Thioredoxin and NTR were assayed as previously described by Florencio et al. (1988). Trypsin activity was measured in 50 mM Tris-HCl, pH 7.9, by following the increase in absorbance at 253 nm with N-benzoyl-L-arginine ethyl ester as substrate (Mundy et al., 1984) or by the release of azo dye into the trichloroacetic acid (TCA)-soluble fraction from azocasein substrate (see below). For trypsin inhibition assays, trypsin (5 to 10 μg) was preincubated with appropriate amounts of KTI or BBTI for 5 minutes at room temperature in 50 mM Tris-HCl, pH 7.9 and proteolytic activity was then determined. While the two substrates yielded similar data, results are presented with only one substrate.
To determine the consequence of reduction by thioredoxin, the trypsin inhibitory activity of the oxidized and reduced forms of KTI and BBTI was compared. […] Similar results were obtained with DTT, a nonphysiological substitute for thioredoxin, and with thioredoxin reduced by lipoic acid, a naturally occurring dithiol.

[1] = biological target: T2, NADP-Malate Dehydrogenase (Zea mays, UniProt P15719); assay: Activation of chloroplast NADP-malate dehydrogenase by thioredoxin-reduced proteins; format: biochemical, corn; conditions: 20 μg protein; DTT→Thioredoxin→Indicated Protein→Target Enzyme
T2 construct: NADP-malate dehydrogenase (NADP-MDH) and fructose-1,6-bisphosphatase (FBPase) were purified from leaves of corn; from tissue; host or cells: corn leaves
T2 sequence (P15719 whole entry, looked up): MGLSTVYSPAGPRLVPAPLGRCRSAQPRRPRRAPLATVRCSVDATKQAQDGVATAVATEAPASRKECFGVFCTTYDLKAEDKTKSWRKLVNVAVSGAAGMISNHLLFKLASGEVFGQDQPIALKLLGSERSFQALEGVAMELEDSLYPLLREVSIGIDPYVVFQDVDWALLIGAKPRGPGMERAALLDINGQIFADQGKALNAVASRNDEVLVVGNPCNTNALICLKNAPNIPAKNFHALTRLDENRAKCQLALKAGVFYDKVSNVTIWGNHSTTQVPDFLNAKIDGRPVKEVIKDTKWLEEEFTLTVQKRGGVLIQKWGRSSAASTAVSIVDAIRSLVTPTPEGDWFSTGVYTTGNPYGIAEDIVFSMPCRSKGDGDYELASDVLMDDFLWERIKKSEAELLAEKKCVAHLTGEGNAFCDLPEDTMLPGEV
Description: The NADP-MDH, FBPase, NTR and Thioredoxin h assay methods were according to Florencio, F. J. et al. (1988), Arch. Biochem. Biophys. 266:496-507 with slight modifications as indicated. For enzyme activation assays, the preincubation time was 20 min unless specified otherwise.
The capability to replace a specific thioredoxin in the activation of chloroplast enzymes is one test for the ability of thiol groups of a given protein to undergo reversible redox change. […] A case in point is purothionin which, when reduced by thioredoxin h activates chloroplast FBPase (Wada, K. et al. (1981), FEBS Lett. 124:237-240, and Johnson, T. C. et al. (1987), Plant Physiol. 85:446-451). The FBPase, whose physiological activator is thioredoxin f, is unaffected by thioredoxin h. In this Example, the ability of cystine-rich proteins to activate FBPase as well as NADP-MDH was tested as set forth above. […]
The Wada et al., 1981 protocol was used for assaying NADP-malate dehydrogenase and fructose 1,6 bisphosphatase in the presence of thioredoxin and 2S protein. […] The 2S protein was monitored during purification by mBBr/SDS-polyacrylamide gel electrophoresis following its reduction by dithiothreitol and E. coli thioredoxin (Crawford et al., 1989; Kobrehel et al., 1991).

B1: Soybean Kunitz: Kunitz soybean trypsin inhibitor (protein, UniProt P01070 25-205, looked up)
Trypsin inhibitor A: DFVLDNEGNPLENGGTYYILSDITAFGGIRAAPTGNERCPLTVVQSRNELDKGIGTIISSPYRIRFIAEGHPLSLKFDSFAVIMLCVGIPTEWSVVEDLPEGPAVKIGENKDAMDGWFRLERVSDDEFNNYKLVFCPQQAEDDKCGDIGISIDHDDGTRRLVVSKNKPLVVQFQKLDKESL
For B1, the “increase in trypsin activity effected by the NADP/thioredoxin system” value (trypsin) was 3 fold, the “Relative Trypsin Activity, inhibitor Reduced by DTT” value (trypsin; DTT 1 mM, 30° C., 1 hour, no inhibitor = 100) was 68.6 and the “Relative Trypsin Activity, inhibitor Reduced by NTS” value (trypsin; E. coli NTS, 30° C., 2 hours, no inhibitor = 100) was 55.6. The “Relative Trypsin Activity, inhibitor Reduced by LA/Trx h” value (trypsin; lipoic acid 0.4 mM and wheat thioredoxin h, 30° C., 1 hour) was 40.5, the “Relative Trypsin Activity, inhibitor Oxidized” value (trypsin; no inhibitor = 100, N-benzoyl-L-arginine ethyl ester) was 17.0 and the “ACTIVITY, NADP-MDH” value [1] was 2 nkat/mg.

Source: US6677433B2 (The Regents of the University of California, priority 2001, dated 2004)
